± gives the uncertainty stated by the source.
B1: Gamma-crystallin S, residues 96 to 176; numbered along this chain, P22914 (parent)
chain: IQIFEKGDFSGQMYETTEDCPSIMEQFHMREIHSCKVLEGVWIFYELPNYRGRQYLLDKKEYRKPIDWGAASPAVQSFRRI

Variants of: B1
Experiment: abundance fitness (aPCA) (normalised: wild type 0, dead -1); higher = more abundant; growth selection in yeast, the domain comes from the species named
Conditions: Homo sapiens

**Q.** With IQIFEKGDFSGQMYETTEDCPSIMEQFHMREIHSCKVLEGVWIFYELPNYRGRQYWLDKKEYRKPIDWGAASPAVQSFRRI [L56W] as the variant, how does the abundance fitness read?
**A.** 0.047 ± 0.14

**Q.** With IQIFEKGDFSGQMYETTEDCPSIMEQFHMREIHSCKVLEGVWIFYELPNYRGRQYMLDKKEYRKPIDWGAASPAVQSFRRI [L56M] as the variant, how does the abundance fitness read?
**A.** -0.228 ± 0.35

**Q.** With IQIFEKGDFSGQMYETTEDCPSIMEQFHMVEIHSCKVLEGVWIFYELPNYRGRQYLLDKKEYRKPIDWGAASPAVQSFRRI [R30V] as the variant, how does the abundance fitness read?
**A.** -0.144 ± 0.038

**Q.** Which abundance fitness does the source give for IQIFEKGDFSGQMYETTEDCPSIMEQFHMREIHSCQVLEGVWIFYELPNYRGRQYLLDKKEYRKPIDWGAASPAVQSFRRI [K36Q] here?
**A.** -0.002 ± 0.07

**Q.** Which abundance fitness does the source give for IQIFEKGDFSGQMYETTEDCPSIMEQFHMREIHSCKVLEGVWIFYELPNYRGRQWLLDKKEYRKPIDWGAASPAVQSFRRI [Y55W] here?
**A.** 0.014 ± 0.18

**Q.** With IQIFEKGDFSGQMYETTEDCPSIMEQFHMREIHSCKVLEGVWIFYELPNYRGRQALLDKKEYRKPIDWGAASPAVQSFRRI [Y55A] as the variant, how does the abundance fitness read?
**A.** -0.152 ± 0.25

**Q.** With IQIFEKGDFSGQMYETTEDCPSIMEQFHMREIHSCKVLEGVWIFYELPNYRGRQVLLDKKEYRKPIDWGAASPAVQSFRRI [Y55V] as the variant, how does the abundance fitness read?
**A.** -0.128 ± 0.23

**Q.** Which abundance fitness does the source give for IQIFEKGDFSGQMYETTEDVPSIMEQFHMREIHSCKVLEGVWIFYELPNYRGRQYLLDKKEYRKPIDWGAASPAVQSFRRI [C20V] here?
**A.** -0.087 ± 0.06

**Q.** Which abundance fitness does the source give for IQIFEKGDFSGQMYETTEDCPSIMEQFSMREIHSCKVLEGVWIFYELPNYRGRQYLLDKKEYRKPIDWGAASPAVQSFRRI [H28S] here?
**A.** 0.042 ± 0.069

**Q.** With IQIFEKGDFSGQMYETTEDCPSIYEQFHMREIHSCKVLEGVWIFYELPNYRGRQYLLDKKEYRKPIDWGAASPAVQSFRRI [M24Y] as the variant, how does the abundance fitness read?
**A.** -0.095 ± 0.14

**Q.** Which abundance fitness does the source give for IQIFEKGDFSGQMYETTEDCPSIMEQFHMREIHSCKVLEGVWIFYSLPNYRGRQYLLDKKEYRKPIDWGAASPAVQSFRRI [E46S] here?
**A.** -0.101 ± 0.054

**Q.** With IQIFEKGDFSGQMYETTEDCPSIMEQFHMREIHSCKVLEGVWIFYFLPNYRGRQYLLDKKEYRKPIDWGAASPAVQSFRRI [E46F] as the variant, how does the abundance fitness read?
**A.** -0.584 ± 0.14

**Q.** With IQIFEKGDFSGQMYETTEDCPSIMEQFHMREIHSCKVLEGVWIFYELPAYRGRQYLLDKKEYRKPIDWGAASPAVQSFRRI [N49A] as the variant, how does the abundance fitness read?
**A.** -0.018 ± 0.029

**Q.** For IQIFEKGDFSGQMYETTEDCPSIMEQFHMREIHSCKVLEGVWIFYELPPYRGRQYLLDKKEYRKPIDWGAASPAVQSFRRI [N49P], which abundance fitness is on record?
**A.** -0.591 ± 0.069

**Q.** Which abundance fitness does the source give for IQIFEKGDFSGQMYERTEDCPSIMEQFHMREIHSCKVLEGVWIFYELPNYRGRQYLLDKKEYRKPIDWGAASPAVQSFRRI [T16R] here?
**A.** 0.003 ± 0.057

**Q.** With IQIFEKGDFSGQMYETTEDCPSIMEQRHMREIHSCKVLEGVWIFYELPNYRGRQYLLDKKEYRKPIDWGAASPAVQSFRRI [F27R] as the variant, how does the abundance fitness read?
**A.** 0.02 ± 0.042

**Q.** For IQIFEKGDFSGQMYETTEDCPSIMEQKHMREIHSCKVLEGVWIFYELPNYRGRQYLLDKKEYRKPIDWGAASPAVQSFRRI [F27K], which abundance fitness is on record?
**A.** -0.018 ± 0.15

**Q.** For IQKFEKGDFSGQMYETTEDCPSIMEQFHMREIHSCKVLEGVWIFYELPNYRGRQYLLDKKEYRKPIDWGAASPAVQSFRRI [I3K], which abundance fitness is on record?
**A.** -1.12 ± 0.24

**Q.** For IQIFEKGDFSGQMYETTEDCPSIMEQFHMREIHSCKVLEGVWIFYELPNYRGRQYLVDKKEYRKPIDWGAASPAVQSFRRI [L57V], which abundance fitness is on record?
**A.** 0.045 ± 0.16

**Q.** For IQIFEKGDFSGQMYETTEDCPSIMEQFHMREIHSCKVLEGVWIFYELPNYRGRQYLPDKKEYRKPIDWGAASPAVQSFRRI [L57P], which abundance fitness is on record?
**A.** -0.517 ± 0.2

**Q.** Which abundance fitness does the source give for IQIFEKGDFSGQMYETTEDCPSIMEQFHMREIHMCKVLEGVWIFYELPNYRGRQYLLDKKEYRKPIDWGAASPAVQSFRRI [S34M] here?
**A.** -0.779 ± 0.16

**Q.** For IQIFEKGDFSGQMYWTTEDCPSIMEQFHMREIHSCKVLEGVWIFYELPNYRGRQYLLDKKEYRKPIDWGAASPAVQSFRRI [E15W], which abundance fitness is on record?
**A.** -0.062 ± 0.13

**Q.** With IQIFEKGDFSGQMYVTTEDCPSIMEQFHMREIHSCKVLEGVWIFYELPNYRGRQYLLDKKEYRKPIDWGAASPAVQSFRRI [E15V] as the variant, how does the abundance fitness read?
**A.** -0.013 ± 0.061

**Q.** Which abundance fitness does the source give for IQIFEKGDFSGQMYETTEDCPSIMEQFHMREIHSCKVLEGVWIFYELPNYRGRQYLLDKKEYDKPIDWGAASPAVQSFRRI [R63D] here?
**A.** -0.051 ± 0.37

**Q.** With IQIFEKGDFSGQMYETTEDCPSIMEQFHMREIHSCKVLEGVWIFYELPNYRGRQYLLDKKEYRKPIDWGAASPAVQSFRVI [R80V] as the variant, how does the abundance fitness read?
**A.** 0.062 ± 0.14

**Q.** Which abundance fitness does the source give for IQIFEKGDFSGQMYETTEDCPSIMEQFHMREIHSCKVLEGVWIFYELPNYRGRQYLLDKKEYRKPIDWGAASPAEQSFRRI [V75E] here?
**A.** -0.821 ± 0.22

**Q.** With IQIFEKGDGSGQMYETTEDCPSIMEQFHMREIHSCKVLEGVWIFYELPNYRGRQYLLDKKEYRKPIDWGAASPAVQSFRRI [F9G] as the variant, how does the abundance fitness read?
**A.** -0.035 ± 0.03

**Q.** Which abundance fitness does the source give for IQIFEKGDFSGQMYETTEDCPSIMEQFHMREIHSCKVLEGVWIFAELPNYRGRQYLLDKKEYRKPIDWGAASPAVQSFRRI [Y45A] here?
**A.** -0.397 ± 0.076

**Q.** With IQIFEKGDFSGQMYETTEDCPSIMEQFHMREIHSCKVLEGVWIFYELLNYRGRQYLLDKKEYRKPIDWGAASPAVQSFRRI [P48L] as the variant, how does the abundance fitness read?
**A.** -0.32 ± 0.056

**Q.** For IQIFEKGDFSGQMYETTEDCPSIMEQFHMREITSCKVLEGVWIFYELPNYRGRQYLLDKKEYRKPIDWGAASPAVQSFRRI [H33T], which abundance fitness is on record?
**A.** 0.06 ± 0.058

**Q.** Which abundance fitness does the source give for IQIFEKGDFSGQMYETTEDCPSIMEQFHMREIHSCKVLEGVWIFYELPNYRGRQYLLDKKEYRKPIDWEAASPAVQSFRRI [G69E] here?
**A.** 0.006 ± 0.21

**Q.** With IQIFEKGDFSGQMYETTEDCPSIMEQFHMREIHSCKVLEGVTIFYELPNYRGRQYLLDKKEYRKPIDWGAASPAVQSFRRI [W42T] as the variant, how does the abundance fitness read?
**A.** -0.709 ± 0.13

**Q.** Which abundance fitness does the source give for IQIFEKGDFSGQMYETTEDCPSIMEQFHMREIHSCKVLEGVYIFYELPNYRGRQYLLDKKEYRKPIDWGAASPAVQSFRRI [W42Y] here?
**A.** 0.046 ± 0.073

**Q.** Which abundance fitness does the source give for IQIFEKGDFAGQMYETTEDCPSIMEQFHMREIHSCKVLEGVWIFYELPNYRGRQYLLDKKEYRKPIDWGAASPAVQSFRRI [S10A] here?
**A.** -0.039 ± 0.052
